Experimental data reported in patent US20250282885A1 (VST BIO, published 2025).

Experiments:
human Sdc2 [1] = target: T1, human Sdc2 (human, UniProt P34741 19-144, limits assumed); test: Octet BLI, heading box over the sensorgram
T1 construct: Antigen of the Octet tandem binning, loaded on biosensors at 100 nM; also called huSdc2; hSdc2
Procedure: (§1) In order to characterize the binding affinity and in vivo/in vitro functional ability of the twelve clones generated by the previous studies and disclosed in Table 1, a series of assays were performed on each clone. These assays measured the affinity of each antibody clone for human, pig, and mouse Sdc2 using an Octet® binding assay system. Additionally, the functional ability of each clone to inhibit VEGFA-driven permeability (see Santiago, et al. (2021) J Am Heart Assoc. 10(18):e020521) was assessed in two therapeutic settings: a “prevention” study in which three concentrations of antibody (5 μg/ml, 10 μg/ml, 15 μg/ml, 20 μg/ml, and/or 40 μg/ml depending on the study) were pre-incubated for an hour before administration of 100 ng/ml of VEGFA, and a “treatment” study in which 3 hours of pre-treatment with 100 ng/ml VEGFA were followed by treatment with antibody at 20 μg/ml or 40 μg/ml. Results are shown for 8-G17 in FIG. 8 and FIG. 9, 20-H19-AB in FIG. 10 and FIG. 11 (FIG. 12 for monkey ECs), R3-P3-C11 in FIG. 13 and FIG. 14, R4M-P3-E06 in FIG. 15 and FIG. 16, R3-P3-E09 in FIG. 17 and FIG. 18, R3-P1-C02 in FIG. 19 and FIG. 20, R3-P3-A12 in FIG. 21 and FIG. 22, R4M-P3-A12 in FIG. 23 and FIG. 24, and R4M-P1-A10 in FIG. 25 and FIG. 26.

mouse Sdc2 = target: T2, mouse Sdc2 (mouse, UniProt P43407 19-145, limits assumed); test: Octet BLI, heading box over the sensorgram
T2 construct: Immobilised on Maxisorp plates for panning and ELISA; also called mSdc2; moSdc2
T2 sequence (P43407 19-145 limits assumed): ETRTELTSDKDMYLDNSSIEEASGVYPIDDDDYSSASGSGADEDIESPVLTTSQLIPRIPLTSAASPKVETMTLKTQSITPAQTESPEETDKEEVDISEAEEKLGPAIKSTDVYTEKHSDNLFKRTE
Procedure: as §1

human Sdc2 [2] = target: T1, human Sdc2; test: Octet tandem binning; saturating Ab m3 19844-R3-P1-C02 (row boxed, self-self >0.09)
pig Sdc2 = target: T3, pig Sdc2 (pig, UniProt F1S0L5 19-145); test: Octet BLI, HIS1K sensor loaded with pigSdc2, antibody as sample; Full R2 0.9799
T3 construct: also called pSdc2

human Sdc2 [3] = target: T1, human Sdc2; test: Octet tandem binning; saturating Ab m1 19838-20H19-AB
human Sdc2 [4] = target: T1, human Sdc2; test: Octet tandem binning; saturating Ab f5 19844-R4M-P3-E06
human Sdc2 [5] = target: T1, human Sdc2; test: Octet tandem binning; saturating Ab f8 19844-R4M-P2-C02
human Sdc2 [6] = target: T1, human Sdc2; test: Octet tandem binning; saturating Ab m8 19844-R4M-P1-B01 (marked non-binding ligand)
human Sdc2 [7] = target: T1, human Sdc2; test: Octet tandem binning; saturating Ab f3 19838-6N03-A

T1 sequence (P34741 19-144 limits assumed): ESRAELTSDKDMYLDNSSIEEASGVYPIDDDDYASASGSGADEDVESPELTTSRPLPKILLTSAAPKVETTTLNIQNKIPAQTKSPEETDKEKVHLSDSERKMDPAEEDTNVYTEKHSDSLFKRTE

B1: R4M-P3-A12 (antibody, human IgG1, kappa, V domains shown)
VH: EVQLVESGGGVVQPGGSLRLSCAASGFTFSDHYMSWIRQAPGKGLEWVSYLSGSGTSIYYADSVKGRFTISRDNAKKSLYLQMNSLRAEDTAVYYCARVGPAAGNAFDIWGQGTMVTVSS
VL: QSVLTQPPSASGTPGQRVTISCSGSSSNIGSNYVYWYQQLPGTAPKLLIYRNNQRPSGVPDRFSGSKSGTSASLAITGLQAEDEADYYCQSYDSSLSGVVFGGGTKLTVLR
With B1 the Kd (human Sdc2 [1]) was ~14 nM, the Kd (mouse Sdc2) was ~11.6 nM and the “raw competing-Ab binding signal” value (human Sdc2 [2]) was 0.0422. The Kd (pig Sdc2) was 15 nM, the koff (pig Sdc2) was 0.0419 s⁻¹ and the kon (pig Sdc2) was 2.8e+06 M⁻¹ s⁻¹. For the same binder, the “raw competing-Ab binding signal” value (human Sdc2 [3]) was 0.153, the “raw competing-Ab binding signal” value (human Sdc2 [4]) was 0.0642 and the “raw competing-Ab binding signal” value (human Sdc2 [5]) was 0.0077. For the same binder, the “raw competing-Ab binding signal” value (human Sdc2 [6]) was 0.0929 and the “raw competing-Ab binding signal” value (human Sdc2 [7]) was 0.106.
